Assay results published in US20090118184A1 (UNIVERSITY OF ROCHESTER, published 2009).
Numbering of substitutions follows the chain as printed.

Tests used:
Assay in all cases: cell-based or functional assay
[1] = molecular target: T1, factor VIIIa A1/A3C1C2 dimer, D27A (human, UniProt P00451 20-391; P00451 1709-2351)
T1 chain 1: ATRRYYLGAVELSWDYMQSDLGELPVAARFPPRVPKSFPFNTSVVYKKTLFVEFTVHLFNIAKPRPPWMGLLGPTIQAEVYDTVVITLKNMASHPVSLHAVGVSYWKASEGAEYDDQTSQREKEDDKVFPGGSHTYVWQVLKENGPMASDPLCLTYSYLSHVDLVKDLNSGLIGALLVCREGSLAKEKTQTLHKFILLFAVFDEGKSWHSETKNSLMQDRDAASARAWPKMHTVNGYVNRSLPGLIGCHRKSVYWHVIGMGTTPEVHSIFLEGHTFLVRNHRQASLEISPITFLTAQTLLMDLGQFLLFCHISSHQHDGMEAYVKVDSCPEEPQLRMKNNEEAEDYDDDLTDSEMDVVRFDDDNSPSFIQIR
T1 chain 2: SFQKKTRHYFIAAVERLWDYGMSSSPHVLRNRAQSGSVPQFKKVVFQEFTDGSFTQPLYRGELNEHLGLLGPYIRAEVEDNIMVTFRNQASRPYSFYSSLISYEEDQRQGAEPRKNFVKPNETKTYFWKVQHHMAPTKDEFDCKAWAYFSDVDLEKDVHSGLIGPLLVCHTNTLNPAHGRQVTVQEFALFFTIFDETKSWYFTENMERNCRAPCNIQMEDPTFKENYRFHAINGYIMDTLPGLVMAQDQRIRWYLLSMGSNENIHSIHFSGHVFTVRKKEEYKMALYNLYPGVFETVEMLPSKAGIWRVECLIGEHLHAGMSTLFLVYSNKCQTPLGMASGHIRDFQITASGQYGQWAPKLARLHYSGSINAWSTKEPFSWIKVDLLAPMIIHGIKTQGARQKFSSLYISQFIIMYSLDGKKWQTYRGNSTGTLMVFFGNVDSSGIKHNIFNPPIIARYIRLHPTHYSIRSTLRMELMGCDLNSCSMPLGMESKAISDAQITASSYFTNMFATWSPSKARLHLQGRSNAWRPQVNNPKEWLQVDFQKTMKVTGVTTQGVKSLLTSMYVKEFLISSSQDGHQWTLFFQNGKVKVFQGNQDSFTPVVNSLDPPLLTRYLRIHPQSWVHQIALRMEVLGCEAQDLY

[2] = molecular target: T2, factor VIIIa A1/A3C1C2 dimer, N1950A (human, UniProt P00451 20-391; P00451 1709-2351)
T2 sequence 1: T1 chain 1 with A27D
T2 sequence 2: T1 chain 2 with N261A

[3] = molecular target: T3, factor VIIIa A1/A3C1C2 dimer, S313A (human, UniProt P00451 20-391; P00451 1709-2351)
T3 chain 1: T1 chain 1 with A27D, S313A
T3 chain 2: T1 chain 2

- Factor VIIIa decay rate relative to wild type, FIXa (+) [1]: 0.79 relative to wild type
- Factor VIIIa decay rate, FIXa (+) [1]: 0.0089 min⁻¹
- Factor VIIIa decay rate relative to wild type, FIXa (+) [2]: 1.73 relative to wild type
- Factor VIIIa decay rate, FIXa (+) [2]: 0.0195 min⁻¹
- Factor VIIIa decay rate relative to wild type, FIXa (+) [3]: 1.86 relative to wild type
- Factor VIIIa decay rate, FIXa (+) [3]: 0.021 min⁻¹
B1: factor VIIIa A2 subunit, wild type (other)
chain: SVAKKHPKTWVHYIAAEEEDWDYAPLVLAPDDRSYKSQYLNNGPQRIGRKYKKVRFMAYTDETFKTREAIQHESGILGPLLYGEVGDTLLIIFKNQASRPYNIYPHGITDVRPLYSRRLPKGVKHLKDFPILPGEIFKYKWTVTVEDGPTKSDPRCLTRYYSSFVNMERDLASGLIGPLLICYKESVDQRGNQIMSDKRNVILFSVFDENRSWYLTENIQRFLPNPAGVQLEDPEFQASNIMHSINGYVFDSLQLSVCLHEVAYWYILSIGAQTDFLSVFFSGYTFKHKMVYEDTLTLFPFSGETVFMSMENPGLWILGCHNSDFRNRGMTALLKVSSCDKNTGDYYEDSYEDISAYLLSKNNAIEPR
